# Reference: patent US20200181195A1 (NEC, published 2020)
# B1: GQDVTSVPV (Seq. ID No. 11) (peptide)
# peptide: GQDVTSVPV
# notes: Only the start position in MUC1 is printed; The end of the range follows from the length of 9 residues
# B2: STGVSFFFL (Seq. ID No. 10) (peptide)
# peptide: STGVSFFFL
# notes: as for B1
# B3: GVPGWGIAL (Seq. ID No. 3) (peptide)
# peptide: GVPGWGIAL
# notes: as for B1
# B4: FSAQSGAGV (Seq. ID No. 12) (peptide)
# peptide: FSAQSGAGV
# notes: as for B1
# B5: TLAFREGTI (Seq. ID No. 9) (peptide)
# peptide: TLAFREGTI
# notes: as for B1
# B6: HHSDTPTTL (Seq. ID No. 7) (peptide)
# peptide: HHSDTPTTL
# notes: as for B1
# B7: FLGLSNIKF (Seq. ID No. 1) (peptide)
# peptide: FLGLSNIKF
# notes: as for B1
# B8: SVPVTRPAL (Seq. ID No. 2) (peptide)
# peptide: SVPVTRPAL
# notes: as for B1
# B9: LQRDISEMF (Seq. ID No. 6) (peptide)
# peptide: LQRDISEMF
# notes: as for B1
# B10: AFREGTINV (Seq. ID No. 4) (peptide)
# peptide: AFREGTINV
# notes: as for B1
# B11: AASRYNLTI (Seq. ID No. 5) (peptide)
# peptide: AASRYNLTI
# notes: as for B1
# B12: SFFFLSFHI (Seq. ID No. 8) (peptide)
# peptide: SFFFLSFHI
# notes: as for B1
# How the values were obtained:
# [1] = biological target: T1, HLA-A*02:01 molecule (HLA-A*02:01 gene product) (human); test: flow cytometry, T2 cells + purified b2m, peptide dilution series, BB7.2 staining
# T1 construct: MHC class I on T2 cells with added purified b2m
# Procedure: (§1) Thereafter, the amount of fluorescence per cell was measured using a flow cytometer, and a dissociation constant Kd value was calculated using a method that was reported in a paper (Udaka et al., Immunogenetics, 51, 816-828, 2000) by the inventors of the present invention.
# [2] = biological target: T2, HLA-A*02:06 molecule (HLA-A*02:06 gene product) (human); test: flow cytometry, RA2.6 cells (RMAS + HLA-A*02:06), peptide dilution series, BB7.2 staining
# T2 construct: whole, on cells; MHC class I on RA2.6 cells (mouse RMAS transfected with HLA-A*02:06); The light chain is not described
# Procedure: Thereafter, the cells were cultured at 35° C. for 4 hours. […] A fluorescently labeled monoclonal antibody BB7.2, which specifically recognizes a peptide-binding HLA-A*02:06 molecule, was added thereto, incubation was carried out on ice for 20 minutes, and thus the cells were stained.
# as §1
# [3] = biological target: T3, HLA-A*24:02 molecule (HLA-A*24:02 gene product) (human); test: flow cytometry, acid-stripped C1R-A24 cells + purified b2m, peptide dilution series, 17A12 staining
# T3 construct: MHC class I on acid-stripped C1R-A24 cells; The endogenous peptide and b2m were removed, then purified b2m was added
# Procedure: First, C1R-A24 cells were exposed to acidic conditions at a pH of 3.3 for 30 seconds, and thus an endogenous peptide that originally binds to the HLA-A*24:02 molecule, and a light chain β2m, which is associated with HLA class-I molecules in common, were dissociated and removed. After neutralization, a purified β2m was added to C1R-A24 cells, and the obtained product was added to a series of dilutions of the peptide and incubated on ice for 4 hours. Staining was carried out using a fluorescently labeled monoclonal antibody 17A12, which recognizes association (MHC-pep) of the three members, that is, a HLA-A*24:02 molecule, a peptide, and β2m, which had reassociated during the incubation.
# Thereafter, the MHC-pep count per C1R-A24 cell (proportional to the intensity of fluorescence of the above-mentioned fluorescent antibody) was quantitatively measured using a fluorescence-activated cell sorter FACScan (Becton-Dickinson). A binding-dissociation constant Kd value between the HLA-A*24:02 molecule and the peptide was calculated from the average intensity of fluorescence per cell using a method that was reported in a paper (Udaka et al., Immunogenetics, 51, 816-828, 2000) by the inventors of the present invention.
binder,measurement,setting,value
B1,Data of binding experiment (log Kd),[1],-6.44 log Kd
same,Data of binding experiment (log Kd),[2],-6.35 log Kd
B2,Data of binding experiment (log Kd),[1],-5.12 log Kd
same,Data of binding experiment (log Kd),[3],-5.17 log Kd
same,Data of binding experiment (log Kd),[2],-5.21 log Kd
B3,Data of binding experiment (log Kd),[1],-4.55 log Kd
same,Data of binding experiment (log Kd),[3],-5.93 log Kd
same,Data of binding experiment (log Kd),[2],-5.76 log Kd
B4,Data of binding experiment (log Kd),[1],-4.74 log Kd
same,Data of binding experiment (log Kd),[2],-5.66 log Kd
B5,Data of binding experiment (log Kd),[3],-5.97 log Kd
same,Data of binding experiment (log Kd),[2],-3.09 log Kd
B6,Data of binding experiment (log Kd),[3],-5.87 log Kd
B7,Data of binding experiment (log Kd),[1],-5.39 log Kd
same,Data of binding experiment (log Kd),[3],-7.07 log Kd
same,Data of binding experiment (log Kd),[2],-4.39 log Kd
B8,Data of binding experiment (log Kd),[1],-3.9 log Kd
same,Data of binding experiment (log Kd),[3],-7.24 log Kd
same,Data of binding experiment (log Kd),[2],-5.63 log Kd
B9,Data of binding experiment (log Kd),[3],-6.65 log Kd
same,Data of binding experiment (log Kd),[2],-4.26 log Kd
B10,Data of binding experiment (log Kd),[3],-5.83 log Kd
B11,Data of binding experiment (log Kd),[1],-4.81 log Kd
same,Data of binding experiment (log Kd),[3],-6.15 log Kd
same,Data of binding experiment (log Kd),[2],-3.82 log Kd
B12,Data of binding experiment (log Kd),[3],-7.07 log Kd
same,Data of binding experiment (log Kd),[2],-3.98 log Kd
